Target: HA-tagged RAS

B1: full-length, HA-tagged wild-type SOS1 (protein)
chain: MQAQQLPYEFFSEENAPKWRGLLVPALKKVQGQVHPTLESNDDALQYVEELILQLLNMLCQAQPRSASDVEERVQKSFPHPIDKWAIADAQSAIEKRKRRNPLSLPVEKIHPLLKEVLGYKIDHQVSVYIVAVLEYISADILKLVGNYVRNIRHYEITKQDIKVAMCADKVLMDMFHQDVEDINILSLTDEEPSTSGEQTYYDLVKAFMAEIRQYIRELNLIIKVFREPFVSNSKLFSANDVENIFSRIVDIHELSVKLLGHIEDTVEMTDEGSPHPLVGSCFEDLAEELAFDPYESYARDILRPGFHDRFLSQLSKPGAALYLQSIGEGFKEAVQYVLPRLLLAPVYHCLHYFELLKQLEEKSEDQEDKECLKQAITALLNVQSGMEKICSKSLAKRRLSESACRFYSQQMKGKQLAIKKMNEIQKNIDGWEGKDIGQCCNEFIMEGTLTRVGAKHERHIFLFDGLMICCKSNHGQPRLPGASNAEYRLKEKFFMRKVQINDKDDTNEYKHAFEIILKDENSVIFSAKSAEEKNNWMAALISLQYRSTLERMLDVTMLQEEKEEQMRLPSADVYRFAEPDSEENIIFEENMQPKAGIPIIKAGTVIKLIERLTYHMYADPNFVRTFLTTYRSFCKPQELLSLIIERFEIPEPEPTEADRIAIENGDQPLSAELKRFRKEYIQPVQLRVLNVCRHWVEHHFYDFERDAYLLQRMEEFIGTVRGKAMKKWVESITKIIQRKKIARDNGPGHNITFQSSPPTVEWHISRPGHIETFDLLTLHPIEIARQLTLLESDLYRAVQPSELVGSVWTKEDKEINSPNLLKMIRHTTNLTLWFEKCIVETENLEERVAVVSRIIEILQVFQELNNFNGVLEVVSAMNSSPVYRLDHTFEQIPSRQKKILEEAHELSEDHYKKYLAKLRSINPPCVPFFGIYLTNILKTEEGNPEVLKRHGKELINFSKRRKVAEITGEIQQYQNQPYCLRVESDIKRFFENLNPMGNSMEKEFTDYLFNKSLEIEPRNPKPLPRFPKKYSYPLKSPGVRPSNPRPGTMRHPTPLQQEPRKISYSRIPESETESTASAPNSPRTPLTPPPASGASSTTDVCSVFDSDHSSPFHSSNDTVFIQVTLPHGPRSASVSSISLTKGTDEVPVPPPVPPRRRPESAPAESSPSKIMSKHLDSPPAIPPRQPTSKAYSPRYSISDRTSISDPPESPPLLPPREPVRTPDVFSSSPLHLQPPPLGKKSDHGNAFFPNSPSPFTPPPPQTPSPHGTRRHLPSPPLTQEVDLHSIAGPPVPPRQSTSQHIPKLPPKTYKREHTHPSMHRDGPPLLENAHSS
  RAS activation: When wild type SOS1 was expressed, RAS activation was low in serum-deprived cells, then increased rapidly after EGF stimulation and finally returned toward basal levels by 30 min

From US20100009361
